Here are results for 15 variants from the RNAGym collection of RNA variant scans (doi:10.1093/molbev/msab373).

Sequences and labels used below:
B1: Azoarcus group I ribozyme (parent)
chain: GUGCCUUGCGCCGGGAAACCACGCAAGGGAUGGUGUCAAAUUCGGCGAAACCUAAGCGCCCGCCCGGGCGUAUGGCAACGCCGAGCCAAGCUUCGGCGCCUGCGCCGAUGAAGGUGUAGAGACUAGACGGCACCCACCUAAGGCAAACGCUAUGGUGAAGGCAUAGUCCAGGGAGUGGCGAAAGUCACACAAACCGG

Variants of B1 are the subject of this series. Nature of the series: reverse-splicing fitness (ratio to wild type); higher = more active; in vitro selection; Mg2+ level not given. The essentials:
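An in vitro group I ribozyme library with randomized positions was T7-transcribed and gel-purified. In triplicate, 10 pmol RNA in EPPS pH 7.5 was reacted with 50 pmoles of a 30-nt RNA substrate for 1 h at 37 °C across several added MgCl2 levels (1–48 mM), then stopped with EDTA. Products were reverse transcribed from a substrate-complementary primer, PCR-amplified and sequenced (HiSeq 4000). Fitness is a variant's read proportion after selection over that before, normalised to wild type.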
With GUGCCUUGCGCCGGGAAACCACGCAAGGGAUGGUGUCAAAUUCGGCGAAACCUAAGCGCCCGCCCGGGCGUAUGGCAACGCGGAGCCAAGCUUCGGCGCCUGCGCCGAUGCAGGUGUAGAGACUAGACGGCACCCACCUAAGGCGAACGUUAUGGUGAAGGCAUAGUCUAGGGAGGGGCGAAAGUCACACAAACCGG [C82G A111C A145G C150U C169U U176G], the reverse-splicing fitness stood at 0.0071.

Turning to GUGCCUUGCGCCGGGAAACCACGCAAGGGAUGGUGUCAAAUUCGGCGAAACCUAAGCGCCCGCCCGGGCGUAUGGCAACGCGGAGCCAAGCUUCGGCGCCUGCGCCGAUGCAGGUGUAGAGACUAGACGGCACCCACCUAAGGCGAACGUUAUGGUGAAGGCAUAGUCUAGGGAGCGGCGAAAGUCACACAAACCGG [C82G A111C A145G C150U C169U U176C], the reverse-splicing fitness was determined as 0.0127.

GUGCCUUGCGCCGGGAAACCACGCAAGGGAUGGUGUCAAAUUCGGCGAAACCUAAGCGCCCGCCCGGGCGUAUGGCAACGCGGAGCCAAGCUUCGGCGCCUGCGCCGAUGCAGGUGUAGAGACUAGACGGCACCCACCUAAGGCGAACGUUAUGGUGAAGGCAUAGUCUAGGGAGAGGCGAAAGUCACACAAACCGG [C82G A111C A145G C150U C169U U176A]: the reverse-splicing fitness amounted to 0.0129.

As to GUGCCUUGCGCCGGGAAACCACGCAAGGGAUGGUGUCAAAUUCGGCGAAACCUAAGCGCCCGCCCGGGCGUAUGGCAACGCGGAGCCAAGCUUCGGCGCCUGCGCCGAUGCAGGUGUAGAGACUAGACGGCACCCACCUAAGGCGAACGUUAUGGUGAAGGCAUAGUCGAGGGAGGGGCGAAAGUCACACAAACCGG [C82G A111C A145G C150U C169G U176G], the reverse-splicing fitness worked out at 0.00611.

Consider GUGCCUUGCGCCGGGAAACCACGCAAGGGAUGGUGUCAAAUUCGGCGAAACCUAAGCGCCCGCCCGGGCGUAUGGCAACGCGGAGCCAAGCUUCGGCGCCUGCGCCGAUGCAGGUGUAGAGACUAGACGGCACCCACCUAAGGCGAACGUUAUGGUGAAGGCAUAGUCGAGGGAGCGGCGAAAGUCACACAAACCGG [C82G A111C A145G C150U C169G U176C], for which the reverse-splicing fitness is 0.0159.

On to GUGCCUUGCGCCGGGAAACCACGCAAGGGAUGGUGUCAAAUUCGGCGAAACCUAAGCGCCCGCCCGGGCGUAUGGCAACGCGGAGCCAAGCUUCGGCGCCUGCGCCGAUGCAGGUGUAGAGACUAGACGGCACCCACCUAAGGCGAACGUUAUGGUGAAGGCAUAGUCGAGGGAGAGGCGAAAGUCACACAAACCGG [C82G A111C A145G C150U C169G U176A], for which the reverse-splicing fitness stood at 0.0107.

For GUGCCUUGCGCCGGGAAACCACGCAAGGGAUGGUGUCAAAUUCGGCGAAACCUAAGCGCCCGCCCGGGCGUAUGGCAACGCGGAGCCAAGCUUCGGCGCCUGCGCCGAUGCAGGUGUAGAGACUAGACGGCACCCACCUAAGGCGAACGCUAUGGUGAAGGCAUAGUCGAGGGAGAGGCGAAAGUCACACAAACCGG [C82G A111C A145G C169G U176A], the reverse-splicing fitness is 0.0207.

For the variant GUGCCUUGCGCCGGGAAACCACGCAAGGGAUGGUGUCAAAUUCGGCGAAACCUAAGCGCCCGCCCGGGCGUAUGGCAACGCGGAGCCAAGCUUCGGCGCCUGCGCCGAUGCAGGUGUAGAGACUAGACGGCACCCACCUAAGGCGAACGCUAUGGUGAAGGCAUAGUCGAGGGAGGGGCGAAAGUCACACAAACCGG [C82G A111C A145G C169G U176G], the reverse-splicing fitness turned out to be 0.00727.

As to GUGCCUUGCGCCGGGAAACCACGCAAGGGAUGGUGUCAAAUUCGGCGAAACCUAAGCGCCCGCCCGGGCGUAUGGCAACGCGGAGCCAAGCUUCGGCGCCUGCGCCGAUGCAGGUGUAGAGACUAGACGGCACCCACCUAAGGCGAACGCUAUGGUGAAGGCAUAGUCGAGGGAGCGGCGAAAGUCACACAAACCGG [C82G A111C A145G C169G U176C], the reverse-splicing fitness amounted to 0.0315.

In the case of GUGCCUUGCGCCGGGAAACCACGCAAGGGAUGGUGUCAAAUUCGGCGAAACCUAAGCGCCCGCCCGGGCGUAUGGCAACGCGGAGCCAAGCUUCGGCGCCUGCGCCGAUGCAGGUGUAGAGACUAGACGGCACCCACCUAAGGCGAACGCUAUGGUGAAGGCAUAGUCUAGGGAGAGGCGAAAGUCACACAAACCGG [C82G A111C A145G C169U U176A], the reverse-splicing fitness was determined as 0.0152.

Turning to GUGCCUUGCGCCGGGAAACCACGCAAGGGAUGGUGUCAAAUUCGGCGAAACCUAAGCGCCCGCCCGGGCGUAUGGCAACGCGGAGCCAAGCUUCGGCGCCUGCGCCGAUGCAGGUGUAGAGACUAGACGGCACCCACCUAAGGCGAACGCUAUGGUGAAGGCAUAGUCAAGGGAGUGGCGAAAGUCACACAAACCGG [C82G A111C A145G C169A], the reverse-splicing fitness amounted to 0.0104.

Consider GUGCCUUGCGCCGGGAAACCACGCAAGGGAUGGUGUCAAAUUCGGCGAAACCUAAGCGCCCGCCCGGGCGUAUGGCAACGCGGAGCCAAGCUUCGGCGCCUGCGCCGAUGCAGGUGUAGAGACUAGACGGCACCCACCUAAGGCGAACGCUAUGGUGAAGGCAUAGUCUAGGGAGUGGCGAAAGUCACACAAACCGG [C82G A111C A145G C169U], for which the reverse-splicing fitness worked out at 0.0141.

As for GUGCCUUGCGCCGGGAAACCACGCAAGGGAUGGUGUCAAAUUCGGCGAAACCUAAGCGCCCGCCCGGGCGUAUGGCAACGCGGAGCCAAGCUUCGGCGCCUGCGCCGAUGCAGGUGUAGAGACUAGACGGCACCCACCUAAGGCGAACGCUAUGGUGAAGGCAUAGUCGAGGGAGUGGCGAAAGUCACACAAACCGG [C82G A111C A145G C169G], the reverse-splicing fitness amounted to 0.00916.

As for GUGCCUUGCGCCGGGAAACCACGCAAGGGAUGGUGUCAAAUUCGGCGAAACCUAAGCGCCCGCCCGGGCGUAUGGCAACGCGGAGCCAAGCUUCGGCGCCUGCGCCGAUGCAGGUGUAGAGACUAGACGGCACCCACCUAAGGCGAACGUUAUGGUGAAGGCAUAGUCCAGGGAGUGGCGAAAGUCACACAAACCGG [C82G A111C A145G C150U], the reverse-splicing fitness was found to be 0.205.

For the variant GUGCCUUGCGCCGGGAAACCACGCAAGGGAUGGUGUCAAAUUCGGCGAAACCUAAGCGCCCGCCCGGGCGUAUGGCAACGCGGAGCCAAGCUUCGGCGCCUGCGCCGAUGCAGGUGUAGAGACUAGACGGCACCCACCUAAGGCGAACGUUAUGGUGAAGGCAUAGUCGAGGGAGUGGCGAAAGUCACACAAACCGG [C82G A111C A145G C150U C169G], the reverse-splicing fitness was 0.00884.
